T1: GST-FAPP1 full length (four-phosphate-adaptor-protein-1) (human, UniProt Q9HB20 1-300)
T1 sequence (looked up): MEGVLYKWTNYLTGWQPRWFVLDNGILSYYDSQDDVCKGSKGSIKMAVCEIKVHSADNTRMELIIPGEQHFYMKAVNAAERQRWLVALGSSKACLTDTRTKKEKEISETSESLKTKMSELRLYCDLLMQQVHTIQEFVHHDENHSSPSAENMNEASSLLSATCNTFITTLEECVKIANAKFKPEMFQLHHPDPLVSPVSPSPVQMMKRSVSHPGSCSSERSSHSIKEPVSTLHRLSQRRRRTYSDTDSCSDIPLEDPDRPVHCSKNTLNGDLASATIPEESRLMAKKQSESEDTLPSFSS

B1: His-Sac1 residues 1–188 (domain or fragment, human, UniProt Q9NTJ5 1-188, looked up)
chain: MATAAYEQLKLHITPEKFYVEACDDGADDVLTIDRVSTEVTLAVKKDVPPSAVTRPIFGILGTIHLVAGNYLIVITKKIKVGEFFSHVVWKATDFDVLSYKKTMLHLTDIQLQDNKTFLAMLNHVLNVDGFYFSTTYDLTHTLQRLSNTSPEFQEMSLLERADQRFVWNGHLLRELSAQPEVHRFALP
B2: GST-FAPP1 residues 1–100 (domain or fragment, human, UniProt Q9HB20 1-100, looked up)
chain: MEGVLYKWTNYLTGWQPRWFVLDNGILSYYDSQDDVCKGSKGSIKMAVCEIKVHSADNTRMELIIPGEQHFYMKAVNAAERQRWLVALGSSKACLTDTRT

Assay [1] concerns the target T1, GST-FAPP1 full length …. The assay can be described thus: pull-down.
The target of the assay “His-Sac1 residues 1–188” is B1. The assay can be described thus: pull-down.

As for B1, the binding result in assay [1] was “binds”.

As for B2, in the assay with His-Sac1 residues 1–188, the binding result is “binds”.

(Values after article PMC6400556 (The Journal of Cell Biology, 2019).)
